# Data as given in IntAct's records for PubMed 36931259.
# B1: 14-3-3 protein sigma (Homo sapiens), P31947 (parent)
# chain: MERASLIQKAKLAEQAERYEDMAAFMKGAVEKGEELSCEERNLLSVAYKNVVGGQRAAWRVLSSIEQKSNEEGSEEKGPEVREYREKVETELQGVCDTVLGLLDSHLIKEAGDAESRVFYLKMKGDYYRYLAEVATGDDKKRIIDSARSAYQEAMDISKKEMPPTNPIRLGLALNFSVFHYEIANSPEEAISLAKTTFDEAMADLHTLSEDSYKDSTLIMQLLRDNLTLWTADNAGEEGGEAPQEPQS
# partner: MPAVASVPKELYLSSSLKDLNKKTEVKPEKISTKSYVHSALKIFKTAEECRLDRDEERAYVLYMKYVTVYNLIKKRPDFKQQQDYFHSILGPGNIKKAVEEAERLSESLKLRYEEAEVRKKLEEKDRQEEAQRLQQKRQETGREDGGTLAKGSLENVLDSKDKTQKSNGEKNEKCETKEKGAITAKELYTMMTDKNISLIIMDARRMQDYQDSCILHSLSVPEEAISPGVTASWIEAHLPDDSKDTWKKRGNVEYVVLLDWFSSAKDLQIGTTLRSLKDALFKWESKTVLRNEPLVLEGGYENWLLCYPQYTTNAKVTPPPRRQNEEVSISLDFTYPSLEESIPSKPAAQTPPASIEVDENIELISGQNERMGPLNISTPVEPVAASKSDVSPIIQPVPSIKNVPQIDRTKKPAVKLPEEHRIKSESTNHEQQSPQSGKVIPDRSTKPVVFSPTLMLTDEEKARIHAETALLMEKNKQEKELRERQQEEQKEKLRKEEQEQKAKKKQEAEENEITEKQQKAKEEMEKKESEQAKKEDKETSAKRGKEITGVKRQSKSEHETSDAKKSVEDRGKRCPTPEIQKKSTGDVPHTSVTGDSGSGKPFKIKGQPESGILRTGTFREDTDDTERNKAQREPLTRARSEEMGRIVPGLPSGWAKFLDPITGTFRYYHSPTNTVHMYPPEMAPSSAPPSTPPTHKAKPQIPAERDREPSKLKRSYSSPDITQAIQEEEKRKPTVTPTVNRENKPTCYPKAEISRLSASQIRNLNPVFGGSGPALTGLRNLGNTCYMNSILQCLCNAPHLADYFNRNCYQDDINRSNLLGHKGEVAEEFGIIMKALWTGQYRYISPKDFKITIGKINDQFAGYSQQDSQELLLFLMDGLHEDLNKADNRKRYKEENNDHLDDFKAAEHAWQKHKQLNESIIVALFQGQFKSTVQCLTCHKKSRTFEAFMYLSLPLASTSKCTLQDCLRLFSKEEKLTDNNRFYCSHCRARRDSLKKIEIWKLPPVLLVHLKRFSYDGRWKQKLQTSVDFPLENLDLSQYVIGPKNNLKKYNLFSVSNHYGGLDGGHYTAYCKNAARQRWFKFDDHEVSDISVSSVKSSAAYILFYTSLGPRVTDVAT
# B2: 14-3-3 protein sigma (Homo sapiens), P31947 (parent)
# chain: B1 chain
# partner: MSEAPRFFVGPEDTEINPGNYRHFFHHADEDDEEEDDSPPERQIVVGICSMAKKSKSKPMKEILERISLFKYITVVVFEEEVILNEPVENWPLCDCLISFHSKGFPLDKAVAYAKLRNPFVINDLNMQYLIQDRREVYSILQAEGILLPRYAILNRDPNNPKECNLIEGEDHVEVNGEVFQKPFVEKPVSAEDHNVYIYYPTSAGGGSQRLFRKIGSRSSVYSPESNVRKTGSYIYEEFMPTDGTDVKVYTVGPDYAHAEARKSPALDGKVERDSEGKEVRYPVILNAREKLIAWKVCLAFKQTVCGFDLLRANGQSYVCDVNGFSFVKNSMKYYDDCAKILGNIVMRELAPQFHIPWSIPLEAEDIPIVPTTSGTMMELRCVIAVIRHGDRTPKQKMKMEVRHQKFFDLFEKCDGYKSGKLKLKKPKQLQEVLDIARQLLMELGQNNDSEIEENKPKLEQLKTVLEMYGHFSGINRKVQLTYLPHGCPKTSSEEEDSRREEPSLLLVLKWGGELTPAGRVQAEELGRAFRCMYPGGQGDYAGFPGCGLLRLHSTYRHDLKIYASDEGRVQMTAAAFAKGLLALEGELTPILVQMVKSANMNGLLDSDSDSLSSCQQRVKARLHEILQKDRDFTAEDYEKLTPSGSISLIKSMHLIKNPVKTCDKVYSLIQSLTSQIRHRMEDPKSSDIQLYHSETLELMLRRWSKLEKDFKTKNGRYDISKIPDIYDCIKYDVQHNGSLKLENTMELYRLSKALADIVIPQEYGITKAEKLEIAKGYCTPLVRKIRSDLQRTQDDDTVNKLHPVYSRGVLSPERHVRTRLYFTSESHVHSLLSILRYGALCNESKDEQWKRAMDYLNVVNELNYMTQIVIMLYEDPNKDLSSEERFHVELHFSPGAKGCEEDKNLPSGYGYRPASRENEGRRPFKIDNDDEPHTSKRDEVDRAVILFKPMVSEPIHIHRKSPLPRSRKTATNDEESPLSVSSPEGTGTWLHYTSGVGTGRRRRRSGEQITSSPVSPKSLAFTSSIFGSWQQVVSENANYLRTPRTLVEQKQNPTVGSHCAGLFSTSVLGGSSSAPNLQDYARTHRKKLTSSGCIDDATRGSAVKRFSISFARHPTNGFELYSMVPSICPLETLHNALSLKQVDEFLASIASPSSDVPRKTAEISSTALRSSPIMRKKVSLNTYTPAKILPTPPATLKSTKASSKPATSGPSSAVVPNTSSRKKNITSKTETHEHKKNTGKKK
# B3: 14-3-3 protein sigma (Homo sapiens), P31947 (parent)
# chain: B1 chain
# partner: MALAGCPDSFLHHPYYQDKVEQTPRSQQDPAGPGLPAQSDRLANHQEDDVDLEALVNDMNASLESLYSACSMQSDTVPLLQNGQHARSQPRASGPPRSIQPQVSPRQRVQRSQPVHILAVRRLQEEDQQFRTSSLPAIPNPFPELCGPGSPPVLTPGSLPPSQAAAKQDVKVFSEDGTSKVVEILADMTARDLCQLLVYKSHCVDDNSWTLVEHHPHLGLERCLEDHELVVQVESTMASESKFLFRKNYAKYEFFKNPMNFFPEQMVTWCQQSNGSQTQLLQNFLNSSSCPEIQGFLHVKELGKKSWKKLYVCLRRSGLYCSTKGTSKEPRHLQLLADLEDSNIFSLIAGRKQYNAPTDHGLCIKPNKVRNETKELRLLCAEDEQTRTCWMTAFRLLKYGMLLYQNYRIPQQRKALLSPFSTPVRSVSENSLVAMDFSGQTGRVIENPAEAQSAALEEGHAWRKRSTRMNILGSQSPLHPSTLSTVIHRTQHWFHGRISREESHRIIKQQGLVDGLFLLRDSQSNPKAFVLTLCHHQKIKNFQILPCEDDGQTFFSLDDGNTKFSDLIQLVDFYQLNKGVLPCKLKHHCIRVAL
# B4: 14-3-3 protein sigma (Homo sapiens), P31947 (parent)
# chain: B1 chain
# partner: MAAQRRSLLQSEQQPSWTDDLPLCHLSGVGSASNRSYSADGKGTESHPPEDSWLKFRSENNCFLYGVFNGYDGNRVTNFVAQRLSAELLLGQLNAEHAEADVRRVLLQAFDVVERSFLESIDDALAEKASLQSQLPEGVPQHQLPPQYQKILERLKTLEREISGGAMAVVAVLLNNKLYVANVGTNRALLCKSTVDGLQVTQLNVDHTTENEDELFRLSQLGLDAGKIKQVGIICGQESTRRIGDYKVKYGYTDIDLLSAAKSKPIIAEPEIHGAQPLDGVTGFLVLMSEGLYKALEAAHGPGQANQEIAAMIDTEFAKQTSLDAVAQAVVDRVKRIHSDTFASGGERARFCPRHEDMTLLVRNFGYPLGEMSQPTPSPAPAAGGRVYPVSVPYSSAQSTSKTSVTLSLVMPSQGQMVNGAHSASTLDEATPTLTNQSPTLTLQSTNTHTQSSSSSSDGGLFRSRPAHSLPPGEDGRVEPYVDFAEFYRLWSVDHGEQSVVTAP
# B5: 14-3-3 protein sigma (Homo sapiens), P31947 (parent)
# chain: B1 chain
# partner: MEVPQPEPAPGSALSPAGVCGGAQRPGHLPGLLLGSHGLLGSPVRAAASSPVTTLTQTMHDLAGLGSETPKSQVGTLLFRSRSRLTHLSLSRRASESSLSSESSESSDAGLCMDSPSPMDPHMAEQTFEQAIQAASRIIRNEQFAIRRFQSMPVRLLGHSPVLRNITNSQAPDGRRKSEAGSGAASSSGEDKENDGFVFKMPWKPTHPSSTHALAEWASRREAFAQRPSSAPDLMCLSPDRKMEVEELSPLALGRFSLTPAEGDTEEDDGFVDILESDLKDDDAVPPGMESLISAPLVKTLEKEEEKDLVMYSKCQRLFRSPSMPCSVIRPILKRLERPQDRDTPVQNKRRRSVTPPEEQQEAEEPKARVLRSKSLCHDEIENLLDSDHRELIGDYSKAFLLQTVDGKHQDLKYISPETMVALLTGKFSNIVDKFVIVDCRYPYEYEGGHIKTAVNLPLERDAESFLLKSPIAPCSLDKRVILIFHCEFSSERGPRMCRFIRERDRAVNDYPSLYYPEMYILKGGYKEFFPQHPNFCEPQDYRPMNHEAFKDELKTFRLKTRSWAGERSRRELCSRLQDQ
# Variants of: B1
# Details: with ubp8_human USP8, P40818
row,Variant,effect of a mutation on the interaction
1,MERASLIQKAKLAEQAERYEDMAAFMKGAVEKGEELSCEERNLLSVAYENVVGGQEAAWRVLSSIEQKSNEEGSEEKGPEVREYREKVETELQGVCDTVLGLLDSHLIKEAGDAESRVFYLKMKGDYYRYLAEVATGDDKKRIIDSARSAYQEAMDISKKEMPPTNPIRLGLALNFSDFHYEIANSPEEAISLAKTTFDEAMADLHTLSEDSYKDSTLIMQLLRDNLTLWTADNAGEEGGEAPQEPQS [K49E;R56E;V178D],decreasing interaction strength

# Variants of: B2
# Details: with vip2_human PPIP5K2, O43314
row,Variant,effect of a mutation on the interaction
1,MERASLIQKAKLAEQAERYEDMAAFMKGAVEKGEELSCEERNLLSVAYENVVGGQEAAWRVLSSIEQKSNEEGSEEKGPEVREYREKVETELQGVCDTVLGLLDSHLIKEAGDAESRVFYLKMKGDYYRYLAEVATGDDKKRIIDSARSAYQEAMDISKKEMPPTNPIRLGLALNFSDFHYEIANSPEEAISLAKTTFDEAMADLHTLSEDSYKDSTLIMQLLRDNLTLWTADNAGEEGGEAPQEPQS [K49E;R56E;V178D],decreasing interaction strength

# Variants of: B3
# Details: with grb10_human GRB10, Q13322
row,Variant,effect of a mutation on the interaction
1,MERASLIQKAKLAEQAERYEDMAAFMKGAVEKGEELSCEERNLLSVAYENVVGGQEAAWRVLSSIEQKSNEEGSEEKGPEVREYREKVETELQGVCDTVLGLLDSHLIKEAGDAESRVFYLKMKGDYYRYLAEVATGDDKKRIIDSARSAYQEAMDISKKEMPPTNPIRLGLALNFSDFHYEIANSPEEAISLAKTTFDEAMADLHTLSEDSYKDSTLIMQLLRDNLTLWTADNAGEEGGEAPQEPQS [K49E;R56E;V178D],decreasing interaction strength

# Variants of: B4
# Details: with tab1_human TAB1, Q15750
row,Variant,effect of a mutation on the interaction
1,MERASLIQKAKLAEQAERYEDMAAFMKGAVEKGEELSCEERNLLSVAYENVVGGQEAAWRVLSSIEQKSNEEGSEEKGPEVREYREKVETELQGVCDTVLGLLDSHLIKEAGDAESRVFYLKMKGDYYRYLAEVATGDDKKRIIDSARSAYQEAMDISKKEMPPTNPIRLGLALNFSDFHYEIANSPEEAISLAKTTFDEAMADLHTLSEDSYKDSTLIMQLLRDNLTLWTADNAGEEGGEAPQEPQS [K49E;R56E;V178D],decreasing interaction strength

# Variants of: B5
# Details: with mpip2_human CDC25B
row,Variant,effect of a mutation on the interaction
1,MERASLIQKAKLAEQAERYEDMAAFMKGAVEKGEELSCEERNLLSVAYENVVGGQEAAWRVLSSIEQKSNEEGSEEKGPEVREYREKVETELQGVCDTVLGLLDSHLIKEAGDAESRVFYLKMKGDYYRYLAEVATGDDKKRIIDSARSAYQEAMDISKKEMPPTNPIRLGLALNFSDFHYEIANSPEEAISLAKTTFDEAMADLHTLSEDSYKDSTLIMQLLRDNLTLWTADNAGEEGGEAPQEPQS [K49E;R56E;V178D],decreasing interaction strength
